Measurements reported in article PMC6255862, “A quaternary tetramer assembly inhibits the deubiquitinating activity of USP25” (Nature Communications, 2018).
Where a chain is given by its changes, count along the chain named.

Tests used:
[1] = biological target: the molecule itself; experiment: SEC; oligomer state of USP25 point mutants (Supplementary Figures 6 and 11, not shown); by the methods all USP25 constructs were loaded on a Superdex 16 column in 100 mM NaCl, 20 mM Tris-HCl pH 8.0, 1 mM β-mercaptoethanol and run on native PAGE
[2] = biological target: the molecule itself; experiment: crystal structure; lysine-methylated USP25NCD tetramer fraction; space group I422, one molecule per asymmetric unit, tetramer from the crystal lattice; 3.28 Å

B1: USP25NCD L271W (enzyme, human, UniProt Q9UHP3 18-714, looked up)
chain: QTFLNQLREITGINDTQILQQALKDSNGNLELAVAFLTAKNAKTPQQEETTYYQTALPGNDRYISVGSQADTNVIDLTGDDKDDLQRAIALSLAESNRAFRETGITDEEQAISRVLEASIAENKACLKRTPTEVWRDSRNPYDRKRQDKAPVGLKNVGNTCWFSAVIQSLFNLLEFRRLVLNYKPPSNAQDLPRNQKEHRNLPFMRELRYLFALLVGTKRKYVDPSRAVEILKDAFKSNDSQQQDVSEFTHKLWDWLEDAFQMKAEEETDEEKPKNPMVELFYGRFLAVGVLEGKKFENTEMFGQYPLQVNGFKDLHECLEAAMIEGEIESLHSENSGKSGQEHWFTELPPVLTFELSRFEFNQALGRPEKIHNKLEFPQVLYLDRYMHRNREITRIKREEIKRLKDYLTVLQQRLERYLSYGSGPKRFPLVDVLQYALEFASSKPVCTSPVDDIDASSPPSGSIPSQTLPSTTEQQGALSSELPSTSPSSVAAISSRSVIHKPFTQSRIPPDLPMHPAPRHITEEELSVLESCLHRWRTEIENDTRDLQESISRIHRTIELMYSDKSMIQVPYRLHAVLVHEGQANAGHYWAYIFDHRESRWMKYNDIAVTKSSWEELVRDSFGGYRNASAYCLMYINDKAQFLIQEEFNKETGQPLVGIETLPPDLRDFVEEDNQRFEKELEEWDAQLAQKALQE
notes: The methods speak of 'USP25NCD point mutants'; not shown: Smt3, N-terminal, cleaved
- stoichiometry N [1]: 4

B2: USP25NCD, lysine-methylated (tetramer fraction used for crystallization) (enzyme, human, UniProt Q9UHP3 18-714, looked up)
chain: B1 chain with W254L
modifications: lysines methylated (borane-dimethylamine complex and formaldehyde)
notes: USP25, human, residues 18-714 of the 1055-residue protein; Model holds Tyr159 to Ala708; NTD (18-158) and several loops (205-214, 256-260, 346-354, 471-515, 671-677) are not seen; also called USP25NCD tetramer; lysine methylated USP25NCD; not shown: Smt3, N-terminal, cleaved
- stoichiometry N [2]: 4
